Assay results as given in PMC9976406, “ANGPTL2 binds MAG to efficiently enhance oligodendrocyte differentiation” (Cell & Bioscience, 2023).
Blank lines part the entries; values can stand above or below the molecule they belong to.

Legend:
[1] = target: ANGPTL2-Flag (angiopoietin-like protein 2) (UniProt Q9UKU9); assay: flow cytometry on cells; conditions: MAG constructs expressed on 293T cells; ANGPTL2 row of plots (representative plot; n = 3 in panel H); parent: 41.7
[2] = target: LILRB2 (Homo sapiens) (UniProt Q8N423); conditions: cited from earlier work
Sequence of LILRB2 (Homo sapiens) (Q8N423 22-460): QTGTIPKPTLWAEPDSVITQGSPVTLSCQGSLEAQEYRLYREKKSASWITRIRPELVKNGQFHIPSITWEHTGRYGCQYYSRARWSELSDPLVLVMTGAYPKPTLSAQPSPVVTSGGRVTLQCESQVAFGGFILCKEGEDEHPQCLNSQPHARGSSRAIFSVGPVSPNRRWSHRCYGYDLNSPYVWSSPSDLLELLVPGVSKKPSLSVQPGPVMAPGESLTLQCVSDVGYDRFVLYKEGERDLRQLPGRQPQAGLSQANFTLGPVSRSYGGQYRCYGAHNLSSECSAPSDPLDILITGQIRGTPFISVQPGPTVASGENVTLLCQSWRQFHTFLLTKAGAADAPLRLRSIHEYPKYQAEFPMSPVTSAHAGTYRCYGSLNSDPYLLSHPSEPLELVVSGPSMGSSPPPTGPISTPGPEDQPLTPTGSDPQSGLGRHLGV

[3] = target: T1, ANGPTL2-Flag (angiopoietin-like protein 2), Q9UKU9; assay: flow cytometry on cells; conditions: chain shown with the change; MAG constructs expressed on 293T cells; ANGPTL2 row of plots (representative plot; n = 3 in panel H); parent: 41.7
T1 chain: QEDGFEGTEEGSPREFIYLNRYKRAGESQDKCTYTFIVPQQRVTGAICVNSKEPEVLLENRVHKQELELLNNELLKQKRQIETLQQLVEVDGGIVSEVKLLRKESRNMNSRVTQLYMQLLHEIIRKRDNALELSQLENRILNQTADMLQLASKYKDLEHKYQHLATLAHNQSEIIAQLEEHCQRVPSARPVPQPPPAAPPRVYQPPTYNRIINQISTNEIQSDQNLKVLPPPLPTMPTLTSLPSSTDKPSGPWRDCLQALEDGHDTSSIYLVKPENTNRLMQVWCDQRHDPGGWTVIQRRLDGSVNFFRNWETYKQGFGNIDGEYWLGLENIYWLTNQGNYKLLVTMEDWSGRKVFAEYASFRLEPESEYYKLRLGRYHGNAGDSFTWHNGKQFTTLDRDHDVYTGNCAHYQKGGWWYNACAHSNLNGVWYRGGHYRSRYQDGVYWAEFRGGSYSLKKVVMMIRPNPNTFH

[4] = target: T2, murine MAG-ECD-Fc (extracellular domain of murine MAG fused with human Fc) (murine, UniProt P20917 20-516); assay: SPR; Biacore T200, CM5 chip; MAG-hFc from conditioned medium captured by pre-immobilised anti-hFc antibody; purified ANGPTL2 injected at indicated doses; conditions: one partner purified
T2 construct: myelin-associated glycoprotein (MAG), murine, extracellular domain (ECD); also called mouse MAG-hFc; murine MAG-hFC; source: 293T, transfected, in conditioned medium
T2 sequence (looked up): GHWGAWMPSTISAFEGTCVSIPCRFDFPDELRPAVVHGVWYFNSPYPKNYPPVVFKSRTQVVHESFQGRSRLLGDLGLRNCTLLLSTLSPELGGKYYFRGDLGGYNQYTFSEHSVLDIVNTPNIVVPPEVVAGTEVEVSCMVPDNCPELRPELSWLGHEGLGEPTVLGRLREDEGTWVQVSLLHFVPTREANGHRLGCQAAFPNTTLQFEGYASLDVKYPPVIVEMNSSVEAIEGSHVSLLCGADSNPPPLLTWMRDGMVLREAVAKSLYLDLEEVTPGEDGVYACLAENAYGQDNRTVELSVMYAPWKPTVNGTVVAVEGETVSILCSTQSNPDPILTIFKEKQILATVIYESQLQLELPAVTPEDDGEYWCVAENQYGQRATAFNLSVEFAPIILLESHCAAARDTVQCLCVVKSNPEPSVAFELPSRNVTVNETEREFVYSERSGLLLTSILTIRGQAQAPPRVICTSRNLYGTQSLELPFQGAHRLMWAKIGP

[5] = target: human MAG-ECD-FC (extracellular domain of human MAG fused with human Fc) (human) (UniProt P20916); assay: BLI; Octet RED96/RED96e; MAG-hFc from conditioned medium loaded on AHC biosensors; purified ANGPTL2 at indicated doses in kinetics buffer
[6] = target: T2, murine MAG-ECD-Fc (extracellular domain …); assay: as above; conditions: one partner purified
[7] = target: human MAG-ECD-FC (extracellular domain of human MAG fused with human Fc) (human) (UniProt P20916); assay: SPR; Biacore T200, CM5 chip; MAG-hFc from conditioned medium captured by pre-immobilised anti-hFc antibody; purified ANGPTL2 injected at indicated doses

Molecule: ANGPTL2 (from UniProt Q9UKU9)
Kd [2]: 5.5 nM

B2: ANGPTL2-Flag (angiopoietin-like protein 2) (ligand, UniProt Q9UKU9 23-493, looked up)
chain: QEDGFEGTEEGSPREFIYLNRYKRAGESQDKCTYTFIVPQQRVTGAICVNSKEPEVLLENRVHKQELELLNNELLKQKRQIETLQQLVEVDGGIVSEVKLLRKESRNMNSRVTQLYMQLLHEIIRKRDNALELSQLENRILNQTADMLQLASKYKDLEHKYQHLATLAHNQSEIIAQLEEHCQRVPSARPVPQPPPAAPPRVYQPPTYNRIINQISTNEIQSDQNLKVLPPPLPTMPTLTSLPSSTDKPSGPWRDCLQALEDGHDTSSIYLVKPENTNRLMQVWCDQRHDPGGWTVIQRRLDGSVNFFRNWETYKQGFGNIDGEYWLGLENIYWLTNQGNYKLLVTMEDWSGRKVFAEYASFRLEPESEYYKLRLGRYHGNAGDSFTWHNGKQFTTLDRDHDVYTGNCAHYQKGGWWYNACAHSNLNGVWYRGGHYRSRYQDGVYWAEFRGGSYSLKKVVMMIRPNPNTFH
notes: angiopoietin-like protein 2 (ANGPTL2), secreted into the conditioned medium of 293T cells; The same ANGPTL2-Flag was used on human and murine MAG; also called purified ANGPTL2 protein; source: 293T, transfected with CMV-ANGPTL2-Flag; conditioned medium collected after 48 h, or purified from it with M2 resin
Kd [4]: 3.08 nM
Kd [5]: 9.34 nM
Kd [6]: 16.4 nM
Kd [7]: 6.47 nM

Next, values leading:

response (% of EGFP+ cells binding ANGPTL2) [1]: 0.33
Molecule: human MAG (myelin-associated glycoprotein), full-length, fused with EGFP (N1-hMAG-EGFP) (from UniProt P20916) G389D; Y341A

response (% of EGFP+ cells binding ANGPTL2) [3]: 0.61
B1: human MAG (myelin-associated glycoprotein), full-length, fused with EGFP (N1-hMAG-EGFP), P20916 G301D; Y303A (protein)
chain: GHWGAWMPSSISAFEGTCVSIPCRFDFPDELRPAVVHGVWYFNSPYPKNYPPVVFKSRTQVVHESFQGRSRLLGDLGLRNCTLLLSNVSPELGGKYYFRGDLGGYNQYTFSEHSVLDIVNTPNIVVPPEVVAGTEVEVSCMVPDNCPELRPELSWLGHEGLGEPAVLGRLREDEGTWVQVSLLHFVPTREANGHRLGCQASFPNTTLQFEGYASMDVKYPPVIVEMNSSVEAIEGSHVSLLCGADSNPPPLLTWMRDGTVLREAVAESLLLELEEVTPAEDDVAACLAENAYGQDNRTVGLSVMYAPWKPTVNGTMVAVEGETVSILCSTQSNPDPILTIFKEKQILSTVIYESELQLELPAVSPEDDGEYWCVAENQYGQRATAFNLSVEFAPVLLLESHCAAARDTVQCLCVVKSNPEPSVAFELPSRNVTVNESEREFVYSERSGLVLTSILTLRGQAQAPPRVICTARNLYGAKSLELPFQGAHRLMWAKIGPVGAVVAFAILIAIVCYITQTRRKKNVTESPSFSAGDNPPVLFSSDFRISGAPEKYESERRLGSERRLLGLRGEPPELDLSYSHSDLGKRPTKDSYTLTEELAEYAEIRVK
